Measurements: the supplement of paper PMC10567573
± gives the standard deviation.

Assay: protein stability index of a GFP-peptide fusion (GPS, HEK-293T) (PSI 1-6); higher = more stable
[1] = treatment: DMSO, c terminus: a fixed tail appended
[2] = treatment: MLN4924 1 uM, 8 h, c terminus: a fixed tail appended
[3] = treatment: DMSO, c terminus: native
[4] = treatment: MLN4924 1 uM, 8 h, c terminus: native
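Also: 24-mer peptide tiles fused after GFP, lentivirally expressed, FACS-sorted into six equal bins by GFP/DsRed ratio, decoded by Illumina sequencing, PSI is the read-weighted mean bin number.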

Row | Sequence | protein stability index [1] | protein stability index [2] | protein stability index [3] | protein stability index [4]
1 | RSSSRINIPERASGPEGNLNQIVT [FAM104B] | 4.28 ± 0.27 | 4.36 ± 0.2 |  | 
2 | DEIRWKYHSDTTPKIIESQRPPH [IQUB] |  |  | 4.25 ± 0.36 | 4.09 ± 0.29
3 | LLLLSKAKLVPSEREASPSNSCQD [IKZF1] | 3.31 ± 0.099 | 3.14 ± 0.15 |  | 
4 | EMTTTDDLDFKHHNYKEMRQLMKV [CPXM2] | 3.75 ± 0.099 | 3.53 ± 0.18 |  | 
5 | LNFCGPNVINHFYCDLPQLFQLSC [OR3A1] | 2.83 ± 0.51 | 2.6 ± 0.71 |  | 
6 | HFDLRDDDDAEEEGPKRELGVRRP [TCF25] | 5.32 ± 0.26 | 5.24 ± 0.3 |  | 
7 | VYEDETKVVHAVDGTAENGIHPLS [PALM] | 4.88 ± 0.24 | 5.11 ± 0.11 |  | 
8 | AVEAELKSSTVGLVTLNDMKAKQE [FAM50A] | 5.21 ± 0.2 | 5.25 ± 0.13 |  | 
9 | WQAKREEEEEEEEEAEAGEEAVPE [CHGA] | 5.6 ± 0.47 | 5.7 ± 0.22 |  | 
10 | VVLCEGVKWLSFHSGYDFGYLIKI [CNOT7] | 2.87 ± 0.36 | 3.09 ± 1.2 |  | 
11 | PGNGTHGLSPEEKEQLSNDRETQE [ELOA2] | 5.73 ± 0.074 | 5.75 ± 0.16 |  | 
12 | ETIEGAPPLWAASAAGHLKVVQSL [FEM1C] | 3.11 ± 0.2 | 3.04 ± 0.46 |  | 
13 | DAERDGVKVPTTLAEYCVKTKAPA [CDC34] | 5.13 ± 0.067 | 5.02 ± 0.26 |  | 
14 | QAKEELARMLREYQELMSLKLALD [KRT71] | 2.61 ± 0.37 | 2.77 ± 0.47 |  | 
15 | RGIIMTFGSGSNGCLGHGSLTDIS [NEK8] | 2.45 ± 0.22 | 2.4 ± 0.31 |  | 
16 | FLVVREPPRGAVERHSDLPPLNPT [SPNS1] | 2.85 ± 0.39 | 3.09 ± 0.34 |  | 
17 | VLTLPFDVVKTQRQVALGAMEAVR [SLC25A39] | 2.51 ± 0.36 | 2.71 ± 0.26 |  | 
18 | QGGGNGQQQQAMSFAILRIIRLVR [KCNA4] | 2.46 ± 0.28 | 2.67 ± 0.24 |  | 
19 | KLRQMRVEKFIYENHPDVFSDSSM [MYOZ1] | 2.43 ± 0.17 | 2.64 ± 0.41 |  | 
20 | SQFLKHQQTHNIEKAHECTDCGKA [ZNF649] | 4.88 ± 0.26 | 4.985 ± 0.041 |  | 
21 | DDFRTKYQTEQSLRQLVESDINSL [KRT33B] | 4.6 ± 0.2 | 4.39 ± 0.12 |  | 
22 | VLSREQSRRSYDDQLRSGSPPKSP [DNAJC4] | 5.29 ± 0.26 | 5.45 ± 0.12 |  | 
23 | RLLKTLETSRSHDLEAVVPQNGSE [ATP23] | 4 ± 0.23 | 4.09 ± 0.19 |  | 

Row | Sequence | protein stability index [1] | protein stability index [2] | protein stability index [3] | protein stability index [4]
24 | TLEFENVQVLTMGNDTSPSEGTNL [HNF4A] | 4.69 ± 0.18 | 4.52 ± 0.39 |  | 
25 | TSSLFRTEPMAWNETADLGLDIGA [CTNNB1] | 3.71 ± 0.24 | 3.82 ± 0.59 |  | 
26 | HSGTKRDPKEDVFQQNHLFWLQNS [PHTF1] | 3.42 ± 0.25 | 3.33 ± 0.26 |  | 
27 | GIKSKEAEEYRLKEHYLTFEKSRY [PSD2] | 3.82 ± 0.093 | 3.94 ± 0.31 |  | 
28 | YTGYCWCVTPNGRPISGTAVAHKT [SMOC2] | 2.73 ± 0.55 | 2.51 ± 0.13 |  | 
29 | NQEITKAFHVRRTNRVKECLAKGT [RHOBTB2] | 3.41 ± 0.51 | 3.64 ± 0.7 |  | 
30 | LAMNYKHGDPIPKVEFTEEEIKTW [TPH1] | 4.21 ± 0.33 | 4.35 ± 0.24 |  | 
31 | EGDVLDTLEALGYKGPLLEEQALT [FAM98B] | 4.36 ± 0.34 | 4.35 ± 0.12 |  | 
32 | DFHLSIHSDMAAIVKAMASPESGL [DVL3] | 2.87 ± 0.21 | 2.85 ± 0.24 |  | 
33 | SLEHTLRVAIAHYQDDPDLRFLLD [TSPAN10] | 2.69 ± 0.16 | 2.98 ± 0.14 |  | 
34 | RRSFLNAHHRSGAQVFPESPESES [GNAS] | 5.02 ± 0.25 | 5.03 ± 0.11 |  | 
35 | LLIVKLEEDCAWSQELPPPDPGPS [ZNF263] | 2.33 ± 0.29 | 2.42 ± 0.29 |  | 
36 | ACGIEHCSVHYVSDSGDGVYAGRP [FBXO34] | 2.25 ± 0.29 | 2.84 ± 1.1 |  | 
37 | PLFYPGIRAGRKNAAPLTIRPPTD [TRIM39] | 3.56 ± 0.25 | 3.58 ± 0.15 |  | 
38 | KREMILKRKEEEALKDSLRPKLSE [VDR] | 4.82 ± 0.28 | 5.24 ± 0.24 |  | 
39 | PVASSGEFFGSASQPAVELVSGSQ [CLINT1] | 4.57 ± 0.16 | 4.82 ± 0.21 |  | 
40 | SGRFAGREWYYGNVTRHQAECALN [NCK2] | 2.31 ± 0.16 | 2.47 ± 0.22 |  | 
41 | NDIFQAANPYWTSRGSSVSMSGGR [TRIM63] | 3.76 ± 0.34 | 3.63 ± 0.062 |  | 
42 | YLHPNSYSCACLASGSVLRLVDAV [HDAC6] | 2.82 ± 0.36 | 2.32 ± 0.066 |  | 
43 | NKKGFWSYGPVILVVLVVAVVASS [TOR1AIP2] | 1.78 ± 0.42 | 1.83 ± 0.042 |  | 
44 | HSKQYRCLSFQPECSMKLTPLVLE [VDR] | 2.5 ± 0.29 | 2.42 ± 0.14 |  | 
45 | TINPLWHIRHLGWNPDARYSEHFL [GLT8D2] | 2.39 ± 0.22 | 2.32 ± 0.24 |  | 
46 | YYERVLKRKTFNKVLGHVNNILIS [GDAP1] | 2.35 ± 0.35 | 2.64 ± 0.7 |  | 

Row | Sequence | protein stability index [1] | protein stability index [2] | protein stability index [3] | protein stability index [4]
47 | IHLDPRTREGFTLLHLAVNSNTPV [FEM1B] | 2.24 ± 0.41 | 2.17 ± 0.27 |  | 
48 | MQIAVPCAFLLLRLLVGLALATLR [TMEM175] | 2.46 ± 0.28 | 2.26 ± 0.17 |  | 
49 | TYNLTEVDKYVNSFVLKNFPALLS [KLHL13] | 2.08 ± 0.26 | 2.28 ± 0.23 |  | 
50 | RLCTWLLALSPDLSLSNATVLTRS [FANCE] | 2.92 ± 0.47 | 3.02 ± 1 |  | 
51 | SRNFGVRNQGNFSVVGTVLAATQA [ZC2HC1C] | 2.96 ± 0.19 | 3.16 ± 0.12 |  | 
52 | VESFKTKVSYLKQKGLGGAMVWAL [CHIT1] | 2.54 ± 0.49 | 2.7 ± 0.56 |  | 
53 | EGYEFCHNRKVLTIFSASNYYEVG [PPEF2] | 2.31 ± 0.44 | 2.05 ± 0.44 |  | 
54 | TALALEPDAIRSRSNTLRERSQVR [PCDHGC5] | 4.64 ± 0.14 | 4.69 ± 0.18 |  | 
55 | PPLWAASAAGHLDVVRSLLRRGAS [FEM1A] | 3.55 ± 0.28 | 3.43 ± 0.28 |  | 
56 | STFHTISPSFQLKAAALPPFPLGA [PLAGL1] | 2.48 ± 0.46 | 2.64 ± 0.16 |  | 
57 | PLSPPTAPDRATAVATASRLGPYV [TRIB3] | 4.72 ± 0.26 | 4.65 ± 0.091 |  | 
58 | TPSPADAKAPPTACYAGAAPAPSQ [CEBPB] | 4.75 ± 0.38 | 4.75 ± 0.27 |  | 
59 | LWEKLAKQGELPREVRRAQARLLN [NOP53] | 2.78 ± 0.12 | 2.82 ± 0.67 |  | 
60 | QKVAVYRALQAALAESGGSPDVLQ [TRADD] | 2.31 ± 0.36 | 2.4 ± 0.46 |  | 
61 | SYLREQMLNEPLVREIVKECSNIP [GAN] | 3.21 ± 0.19 | 3.39 ± 0.45 |  | 
62 | LEALHLEALCEEDLLLWIQKHTEV [DENND6A] | 2.68 ± 0.17 | 2.84 ± 0.67 |  | 
63 | DLHRQFPFHEMFVSRGGHGQQDLF [TBC1D10A] | 2.73 ± 0.17 | 2.8 ± 0.34 |  | 
64 | LVSGSQSALGPPPAASNSSDLFDL [CLINT1] | 4.43 ± 0.24 | 4.34 ± 0.18 |  | 
65 | VIESFTELSRIVLMRHGMEKIWRP [RAB40C] | 3.11 ± 1 | 2.6 ± 0.59 |  | 
66 | AIQGISEKEKAEIEAKEACDWLRA [DLC1] | 4.69 ± 0.42 | 4.72 ± 0.39 |  | 
67 | VVLLFETALLSSGFSLEDPQTHSN [HSP90AB1] |  | 2.83 ± 0.84 |  | 
68 | RLTSQDWERVHLIVAGGYDERVLE [ALG2] | 3.06 ± 0.28 | 3.21 ± 0.27 |  | 
69 | NVEDHINPKLPNISLDVLQPSFPE [POMT2] | 4.58 ± 0.22 | 4.7 ± 0.15 |  | 

Row | Sequence | protein stability index [1] | protein stability index [2] | protein stability index [3] | protein stability index [4]
70 | NSVCSKFRKEIKSKSADNQEYFER [RHOBTB1] | 4.26 ± 0.19 | 4.45 ± 0.32 |  | 
71 | APEIDPSSDGSNFGWETKIKAWMD [KMT2E] | 4.21 ± 0.41 | 4.36 ± 0.25 |  | 
72 | EGFLFVFGGQDENKQTLSSGEKYD [GAN] | 3.11 ± 0.28 | 3.73 ± 0.64 |  | 
73 | IPVLYCMVFIAGILLNGVSGWIFF [P2RY14] | 3.28 ± 0.64 | 2.9 ± 0.37 |  | 
74 | WDSFSAWLHCVCVVGFDLELGQAV [DENND6A] | 3.04 ± 0.34 | 3.27 ± 0.68 |  | 
75 | AVQDHGQPPLSATVTLTVAVADSI [PCDHGA10] | 2.83 ± 0.22 | 2.98 ± 0.34 |  | 
76 | TNHGYRVQVENPERFSSAPCLLGS [TRIM35] | 3.4 ± 0.17 | 3.29 ± 0.31 |  | 
77 | RSLGPRAPSLRRHVLIHNTLQQLQ [SERTAD3] | 2.64 ± 0.25 | 3.05 ± 0.19 |  | 
78 | YAHQPRTADEIPMEPGDIIGVAGN [FUT8] | 4.2 ± 0.24 | 4.36 ± 0.17 |  | 
79 | KNHSTVTVEEAKAEKETELSLQKE [TRIM29] | 5.57 ± 0.24 | 5.58 ± 0.23 |  | 
80 | GDQDPLSKIPFKILSGHEHAVSTC [WDR88] | 3.31 ± 0.23 | 3.78 ± 0.16 |  | 
81 | GRCELARVLHDFGLDGYRGYSLAD [SPACA3] | 2.62 ± 0.13 | 2.35 ± 0.32 |  | 
82 | GGFQMHYEKTPFDQLAFIEELFSL [EID1] | 2.12 ± 0.9 |  |  | 
83 | LARGPLNQTALHLAAAHGHSEVVE [RIPK4] | 4.36 ± 0.18 | 4.55 ± 0.19 |  | 
84 | FAQPMMRPPFGAAAVPGTQLSPSP [SNAP91] | 3.43 ± 0.31 | 3.71 ± 0.35 |  | 
85 | VGGTIRTCQKFLIQYNRRQLLILL [POP5] | 2.96 ± 0.47 | 2.64 ± 0.67 |  | 
86 | APQHPQPGSQALPAPALAPDQLPQ [FBXO28] | 5.13 ± 0.32 | 5.04 ± 0.29 |  | 
87 | SWEVVTSMGTQRCDAGVCVLREK [KLHL12] |  |  | 2.89 ± 0.46 | 3.17 ± 0.41
88 | CHLTPSIYTEFPDETLRSGELLNM [INTS3] | 3.04 ± 0.17 | 2.99 ± 0.24 |  | 
89 | MRSNYPPPLSSAALRGAGPTRRN [C6orf223] |  |  | 3.1 ± 1.3 | 3.18 ± 0.51
